Key:
[1] = compound: O=C(O)[C@H]1CNC[C@@H](CN/N=C/c2ccc(-c3cc(C(F)(F)F)cc(C(F)(F)F)c3)o2)C1; test: (§1) Non-competitive inhibition of human GAT1 expressed in COS cells assessed as reduction in [2H6]GABA uptake by measuring [2H6]GABA Vmax at 10 uM preincubated for 25 mins followed by [3H]GABA addition and measured after 4 mins by liquid scintillation counting method (reference value: 570 +/- 53 amol/cell.min); assay type: cell-based
[2] = compound: O=C(O)[C@H]1CNC[C@@H](CN/N=C/c2ccc(-c3cccc4ccccc34)o2)C1; test: as §1; assay type: cell-based
[3] = compound: O=C(O)[C@H]1CNC[C@@H](CN/N=C/c2ccc(-c3cc(C(F)(F)F)cc(C(F)(F)F)c3)o2)C1; test: (§2) Non-competitive inhibition of human GAT1 expressed in COS cells assessed as reduction in [2H6]GABA uptake by measuring [2H6]GABA Km(app) at 10 uM preincubated for 25 mins followed by [3H]GABA addition and measured after 4 mins by liquid scintillation counting method (reference value: 12 +/- 1.2 uM); assay type: cell-based
[4] = compound: O=C(O)[C@H]1CNC[C@@H](CN/N=C/c2ccc(-c3cccc4ccccc34)o2)C1; test: as §2; assay type: cell-based
[5] = compound: O=C(O)[C@H]1CNC[C@@H](CN/N=C/c2ccc(-c3cc(C(F)(F)F)cc(C(F)(F)F)c3)o2)C1; test: as §1, with “30” for “10”; assay type: cell-based
[6] = compound: O=C(O)[C@H]1CNC[C@@H](CN/N=C/c2ccc(-c3cccc4ccccc34)o2)C1; test: as §1, with “30” for “10”; assay type: cell-based
[7] = compound: O=C(O)[C@H]1CNC[C@@H](CN/N=C/c2ccc(-c3cc(C(F)(F)F)cc(C(F)(F)F)c3)o2)C1; test: (§3) Non-competitive inhibition of human GAT1 expressed in COS cells assessed as reduction in [2H6]GABA uptake by measuring [2H6]GABA Km(app) at 30 uM preincubated for 25 mins followed by [3H]GABA addition and measured after 4 mins by liquid scintillation counting method (reference value: 12 +/- 1.2 uM); assay type: cell-based
[8] = compound: O=C(O)[C@H]1CNC[C@@H](CN/N=C/c2ccc(-c3cccc4ccccc34)o2)C1; test: as §3; assay type: cell-based
[9] = substrate: Cc1ccsc1C(=CCCN1CCC[C@@H](C(=O)O)C1)c1sccc1C; settings: Homo sapiens; 100 nM
[10] = substrate: Cc1ccsc1C(=CCCN1CCC[C@@H](C(=O)O)C1)c1sccc1C; settings: Homo sapiens; 100 nM; remark: listed apart in the source
[11] = substrate: Cc1ccsc1C(=CCCN1CCC[C@@H](C(=O)O)C1)c1sccc1C; settings: Homo sapiens; 300 nM
Description: Mixed-type inhibition of human GAT1 expressed in COS cells assessed as reduction in [2H6]GABA uptake by measuring [2H6]GABA Vmax at 300 nM preincubated for 25 mins followed by [3H]GABA addition and measured after 4 mins by liquid scintillation counting method

[12] = substrate: Cc1ccsc1C(=CCCN1CCC[C@@H](C(=O)O)C1)c1sccc1C; settings: Homo sapiens; 300 nM; remark: listed apart in the source

B1: Sodium- and chloride-dependent GABA transporter 1 (Homo sapiens), P30531 (protein)
chain: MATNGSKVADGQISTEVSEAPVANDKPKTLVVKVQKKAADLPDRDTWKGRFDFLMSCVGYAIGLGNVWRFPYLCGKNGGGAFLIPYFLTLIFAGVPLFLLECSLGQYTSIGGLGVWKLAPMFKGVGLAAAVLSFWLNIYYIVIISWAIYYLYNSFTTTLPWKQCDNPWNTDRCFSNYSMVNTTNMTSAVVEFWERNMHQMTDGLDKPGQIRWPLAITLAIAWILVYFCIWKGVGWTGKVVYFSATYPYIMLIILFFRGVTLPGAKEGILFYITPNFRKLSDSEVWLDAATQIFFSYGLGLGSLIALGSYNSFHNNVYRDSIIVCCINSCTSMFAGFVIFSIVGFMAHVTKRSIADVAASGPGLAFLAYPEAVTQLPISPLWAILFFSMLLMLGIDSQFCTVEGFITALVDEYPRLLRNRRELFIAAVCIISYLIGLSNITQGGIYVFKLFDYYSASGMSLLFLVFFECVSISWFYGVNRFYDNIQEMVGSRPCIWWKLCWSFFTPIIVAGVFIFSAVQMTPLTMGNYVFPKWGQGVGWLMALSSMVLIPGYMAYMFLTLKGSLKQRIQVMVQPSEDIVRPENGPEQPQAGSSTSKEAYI
In the case of B1, the Vmax (amol/cell.min) [1] is reported as 341, the Vmax (amol/cell.min) [2] is reported as 332 and the Km [3] is reported as 8.2 µM. The Km [4] was 10.1 µM, the Vmax (amol/cell.min) [5] was 183 and the Vmax (amol/cell.min) [6] was 165. For the same protein, the Km [7] was 5.1 µM, the Km [8] was 5.7 µM and the Km [9] was 19.7 µM. It also gave a Vmax (amol/cell.min) [10] of 491, a Vmax (amol/cell.min) [11] of 419 and a Km [12] of 29.4 µM.

— ChEMBL document CHEMBL4371014, “Novel Allosteric Ligands of γ-Aminobutyric Acid Transporter 1 (GAT1) by MS Based Screening of Pseudostatic Hydrazone Libraries” (J Med Chem, 2018)
